According to article PMC8113450:

Biological target: wild-type human Elp123 sub-complex (hElp123WT) (human) (UniProt O95163)
Experiment: SEC; gel filtration of purified hElp123 on Superose 6 Increase 10/300 GL; 20 mM HEPES, 150 mM NaCl, 5 mM DTT, pH 8.0; Elp1-Elp2-Elp3 trimer to dimer of trimers

stoichiometry N: 2
Substance: wild-type human Elp123 sub-complex (hElp123WT), O95163 1-1332; Q6IA86 1-826; Q9H9T3 1-547
